“Also recorded” adds a separate entry of the source.
How the values were obtained:
HHDII/DR1 mice = assay: In vivo toxicity in HHDII/DR1 mice; set-up: species or system HHDII/DR1 (HLA‐A2 transgenic) mice; settings: 10 nmol in 50 μL s.c., days 1, 8 and 15, n = 3
Description: Animal experiments were carried out with ethical approval from University of Nottingham ethical review board and under a Home Office approved project license (PP2706800). Mice were dosed with 10 nmol of material in 50 μL at Days 1, 8 and 15 (n = 3). IFNϒ ELISpot assays on splenocytes were conducted on termination at Day 21. General methods for the ELISpot can be found in the Supporting Information. Preparation of media and buffers and steps performed on Days 1 and 2 post‐termination; the ELISpot assays were performed using a laminar flow cabinet and aseptic techniques to ensure the sterility of media, reagents and plates at stages before development of the ELISpot. Development of the ELISpot on Day 4 posttermination was performed on the laboratory bench.
In Vivo Evaluation (ELISpot Assay)
Animal experiments were carried out with ethical approval from University of Nottingham ethical review boards and under a Home Office approved project license (PP2706800). HLA-HHDII/DR1 (HLA-A2.1+/+ HLADR1+/+, Pasteur Institute) transgenic mice knocked out for murine MHC-I and II and expressing chimeric HLA-A2 (HHDII) and human HLA-DR1 or Balb/c mice (Charles River) aged 6-12 weeks were used. Mice were vaccinated with 10 ηmol of each immunogen at each timepoint. Doses were delivered subcutaneously (s.c.) in 50 µl volume on days 1, 8 and 15. No anaesthesia was used for injections. […]

[1] = Circular dichroism (secondary structure); assay type: physicochemical
Description: CysBAGE4‐MalLNP and 2‐LNP formulations were analysed using DLS, circular dichroism (CD), and TEM. DLS analysis: CysBAGE4‐MalLNP and 2‐LNP formulations were diluted with Milli‐Q water and transferred to disposable cuvettes before measurement at 25°C with a 173° light scattering angle, […]. CD analysis: CysBAGE4‐MalLNP and 2‐LNP formulations were diluted with Milli‐Q water and analysed using a quartz cell with a 0.01 mm path length. Spectra were measured using a 0.5 nm step, 1 nm bandwidth and 1 s collection time per step. […]
NMR samples were analysed on either a Bruker AVIII 400 NMR system (1H-NMR frequency 400 MHz; 13C-NMR frequency 101 MHz) or a Bruker 500 MHz system (1H-NMR frequency 500 MHz; 13C-NMR frequency 125 MHz). […]
High-resolution mass spectra were recorded on a Bruker MicroTOF Focus II MS (ESI) operating in positive or negative ionisation mode. […]
Peptides were analyzed using a Waters Sunfire 5 μm, 2.1 x 150 mm column (C-18) at a flow rate of 0.6 mL/min. […]
Dynamic Light Scattering (DLS) Spectra were recorded using a Zetasizer Nano ZS (Malvern Panalytical) to measure the particle size and charge. […]
Circular Dichroism (CD) Spectra were recorded using a Chirascan spectropolarimeter (Applied Photophysics, U.K.). […]
windows, with 0.01 mm path length. Spectra were measured using a 0.5 nm step, 1 nm […]

**Q.** What does the source list for “3: vaccine‐adjuvant construct Pam2Cys‐SK4‐NY‐ESO‐1_157‐165 [compound 3]”?
**A.** In vivo toxicity outcome (HHDII/DR1 mice): non‐toxic; α‐helical character (f α) ([1]; CD spectra, Figures S12 and S13): 0.41; Secondary structure (in words) ([1]; CD, 0.01 mm path length, 180–280 nm): form α‐helical structures; also recorded: significantly more α‐helical character

— paper PMC12053792 (Journal of Peptide Science, 2025)
